Substrate in data set [1]: O=C(O)C(=O)CS(=O)(=O)O
The data set can be described thus: purified protein. The format is biochemical, Methanobrevibacter millerae. As to conditions: reduction reaction, 400 μM NADH, 400 mM KCl, 50 mM BTP pH 6.5, 37°C.

Substrate in data set [2]: NC(=O)C1=CN([C@@H]2O[C@H](COP(=O)(O)OP(=O)(O)OC[C@H]3O[C@@H](n4cnc5c(N)ncnc54)[C@H](O)[C@@H]3O)[C@@H](O)[C@H]2O)C=CC1
Put plainly: purified protein. In kind it is biochemical, Methanobrevibacter millerae. As to conditions: reduction reaction, 500 μM sulfopyruvate, 400 mM KCl, 50 mM BTP pH 6.5, 37°C, varied: cofactor.

This passage reports Km, Vmax and kcat results from paper PMC5695019, “Expression, Purification, and Characterization of (R)-Sulfolactate Dehydrogenase (ComC) from the Rumen Methanogen Methanobrevibacter millerae SM9” (Archaea, 2017).

B1: ComC ((R)-sulfolactate dehydrogenase) (Methanobrevibacter millerae) (protein)
chain: MKIMKDNEIALVKEILKKLGASEEDCELVAEATIDADLKGFTSHGLGRFPQYLISIEAGTINLEDNITIEKETPAIALINGNSGFGQAVSYKAMQIAIKKAKEVGIGCVGVHNTNHFGVTGFYSDLALRENVIGMVIANTDPAIAPLGGKEALIGTNPIAIGIPSETYITVDMATSVTARGKIIESRRKGLDLPEGWALDKDGNPTTDPEAALDGGSILPFGGFKGYALALMVEILTGPLVQAGYGTGVTGTASPTKDCTKGDLYIAIDPSKFGDFGDFVANTEDFVSQVRATGETVAIPGDLEVKRIAEAEENGIEIDAKLYEQLKGICDDLDIDIDSYLED
notes: full-length, His-tagged (pET151D TOPO, E. coli Rosetta 2), tag kept, 376 residues and 40104 Da with tag; dimer (75 kDa by gel filtration); primers encode N-terminus MKIMKDNE and C-terminus DIDSYLED
One may read the Km as the substrate concentration at which the rate is half of its maximum. As a reminder, the Vmax is the top rate of the reaction or transport when substrate is in excess. One may read the kcat as the maximal rate divided by the concentration of active sites. With B1, in the data set “purified protein [1]”, the Km is 196 ± 71 µM, the Vmax is 93.9 µmol/min/mg and the kcat was found to be 62.8 ± 9.7 s⁻¹. For the same protein, in “purified protein [2]”, the Km amounted to 55.1 ± 7.6 µM, the Vmax came to 73.1 µmol/min/mg and the turnover number (kcat) is 48.9 ± 2.2 s⁻¹.
